Biological target: the molecule itself
Assay: crystal structure; hanging drop vapor diffusion, room temperature, 16% PEG 8000, 100 mM HEPES, 200 mM calcium acetate, 200 μM 5-AU, pH 7.5; two monomers in the asymmetric unit

B1: Pseudomonas aeruginosa dihydropyrimidinase (enzyme)
chain: MSLLIRGATVVTHEESYRADVLCANGLIQAIGENLETPSGCDVLDGGGQYLMPGGIDPHTHMQLPFMGTVASEDFFSGTAAGLAGGTTSIIDFVIPNPRQSLLEAFHTWRGWAQKSAADYGFHVAITWWSDEVAREMGELVAQHGVNSFKHFMAYKNAIMAADDTLVASFERCLELGAVPTVHAENGELVFHLQQKLLAQGLTGPEAHPLSRPPQVEGEAASRAIRIAETLGTPLYLVHISSREALDEIAYARAKGQPVYGEVLAGHLLLDDSVYRHPDWATAAGYVMSPPFRPVEHQEALWRGLQSGNLHTTATDHCCFCAEQKAMGRDDFSKIPNGTAGIEDRMALLWDAGVNSGRLSMHEFVALTSTNTAKIFNLFPRKGAIRVGADADLVLWDPQGSRTLSAATHHQRVDFNIFEGRTVRGIPSHTISQGKLLWAAGDLRAEPGAGRYVERPAYPSVYEVLGRRAERQRPVAVER
modifications: carbamylated Lys150 (Kcx150)
notes: dihydropyrimidinase of Pseudomonas aeruginosa (PaDHPase), wild type; Binuclear Zn centre (Znα, Znβ) in each monomer; also called PaDHPase; DHPase
- binding result: binds

From paper PMC8860565, “Molecular Insights into How the Dimetal Center in Dihydropyrimidinase Can Bind the Thymine Antagonist 5-Aminouracil: A Different Binding Mode from the Anticancer Drug 5-Fluorouracil” (Bioinorganic Chemistry and Applications, 2022)
